According to PMC11892609:

B1: WT mTMIE-HA-Avi [mouse] / Fyn-mTMC2-mCherry [mouse] (parent)
chain 1: QLVEPSTAPPKPKPPPLTKETVVFWDMRLWHVVGIFSLFVLSIIITLCCVFNCRVPRTRKEIEARYLQRKAAKMYTDKLETVPPLNELTEIPGEDKKKKKKDSVDTVAIKVEEDEKNEAKKKGEK
chain 2: MSPQLKSLDEEGDKSARRPTRKQTSRAACPQDGHRAQSSRKDPAKGSPRPGSSRKKQMEHGSYHKGLQGQKPRKVERSLQGRKKDRRTSLKEQRASPKKEREALRKEAGKQLRKPRSTSLGSSVSTGDSLSEEELAQILEQVEEKKKLITTVRNKPWPMAKKLRELREAQAFVEKYEGALGKGKGKHLYAYRMMMAKKWVKFKRDFDNFKTQCIPWEMKIKDIESHFGSSVASYFIFLRWMYGVNLVLFGLIFGLVIIPEVLMGMPYGSIPRKTVPRAEEERAMDFSVLWDFEGYIKYSALFYGYYNNQRTIGWLRYRLPMAYFMVGVSVFGYSLMIVIRSMASNTQGSTSEGDSDSFTFSFKMFTSWDYLIGNSETADNKYVSITTSFKESIVDEQESNKEGNIHLTRFLRVLANFLILCCLCGSGYLIYFVVKRSQEFSKMQNVSWYERNEVEIVMSLLGMFCPPLFETIAALENYHPRTGLKWQLGRIFALFLGNLYTFLLALMDDVHLKLSNEEKIKNITHWTLFNYYNSSGGNESVPRPPPHPADVPRGSCWETAVGIEFMRLTVSDMLVTYLTILVGDFLRACFVRFMNHCWCWDLEAGFPSYAEFDISGNVLGLIFNQGMIWMGSFYAPGLVGINVLRLLTSMYFQCWAVMSSNVPHERVFKASRSNNFYMGLLLLVLFLSLLPVAYTVMSLPPSFDCGPFSGKNRMYDVLHETIENDFPKFLGKIFAFLANPGLIIPAILLMFLAIYYLNSVSKSLSRANAQLRKKIQALREVEKNHKSIKGKAIVTYSEDTIKNSSKNATQIHLTKEEPTSHSSSQIQTLDKKAQGPHTSSTEGGASPSTSWHHVGSQPPRGRRDSGQPQSQTYTGRSPSGKRTQRPHN

Variants of: B1
Assay: pull-down with NeutrAvidin beads, western blot quantification
Settings: PK-HEK293T cells co-expressing Fyn-mTMC2-mCherry and mTMIE-HA-Avi, three experiments, parent: 1, read off a plot

ratio to parent	Variant
1.7	chain 1 QLVEPSTAPPKPKPPPLTKETVVFWDMRLWHVVGIFSLFVLSIIITLSSVFNCRVPRTRKEIEARYLQRKAAKMYTDKLETVPPLNELTEIPGEDKKKKKKDSVDTVAIKVEEDEKNEAKKKGEK [chain 1 C48S C49S]
